Earlier results as cited in patent US20200069786A1, “COMPOSITION AND PROCESS FOR PREPARING VACCINE” (TREOS BIO ZRT., priority 2018, published 2020).
Like-named read-outs stand apart in the source and are kept apart here.

System: TSA
[1] = TSA expression rate in BLADDER cancer
[2] = TSA expression rate in Esophageal
[3] = TSA expression rate in GASTRIC cancer
[4] = TSA expression rate in HEAD and NECK
[5] = TSA expression rate in LEUKEMIAS
[6] = TSA expression rate in LYMPHOMAS
[7] = TSA expression rate in MELANOMA
[8] = TSA expression rate in PEDIATRIC
[9] = TSA expression rate in Cervical cancer
[10] = TSA expression rate in PROSTATE cancer

B1: MAGE-C1 (protein, UniProt O60732 1-1142, looked up)
Melanoma-associated antigen C1: MGDKDMPTAGMPSLLQSSSESPQSCPEGEDSQSPLQIPQSSPESDDTLYPLQSPQSRSEGEDSSDPLQRPPEGKDSQSPLQIPQSSPEGDDTQSPLQNSQSSPEGKDSLSPLEISQSPPEGEDVQSPLQNPASSFFSSALLSIFQSSPESTQSPFEGFPQSVLQIPVSAASSSTLVSIFQSSPESTQSPFEGFPQSPLQIPVSRSFSSTLLSIFQSSPERTQSTFEGFAQSPLQIPVSPSSSSTLLSLFQSFSERTQSTFEGFAQSSLQIPVSPSFSSTLVSLFQSSPERTQSTFEGFPQSPLQIPVSSSSSSTLLSLFQSSPERTHSTFEGFPQSLLQIPMTSSFSSTLLSIFQSSPESAQSTFEGFPQSPLQIPGSPSFSSTLLSLFQSSPERTHSTFEGFPQSPLQIPMTSSFSSTLLSILQSSPESAQSAFEGFPQSPLQIPVSSSFSYTLLSLFQSSPERTHSTFEGFPQSPLQIPVSSSSSSSTLLSLFQSSPECTQSTFEGFPQSPLQIPQSPPEGENTHSPLQIVPSLPEWEDSLSPHYFPQSPPQGEDSLSPHYFPQSPPQGEDSLSPHYFPQSPQGEDSLSPHYFPQSPPQGEDSMSPLYFPQSPLQGEEFQSSLQSPVSICSSSTPSSLPQSFPESSQSPPEGPVQSPLHSPQSPPEGMHSQSPLQSPESAPEGEDSLSPLQIPQSPLEGEDSLSSLHFPQSPPEWEDSLSPLHFPQFPPQGEDFQSSLQSPVSICSSSTSLSLPQSFPESPQSPPEGPAQSPLQRPVSSFFSYTLASLLQSSHESPQSPPEGPAQSPLQSPVSSFPSSTSSSLSQSSPVSSFPSSTSSSLSKSSPESPLQSPVISFSSSTSLSPFSEESSSPVDEYTSSSDTLLESDSLTDSESLIESEPLFTYTLDEKVDELARFLLLKYQVKQPITKAEMLTNVISRYTGYFPVIFRKAREFIEILFGISLREVDPDDSYVFVNTLDLTSEGCLSDEQGMSQNRLLILILSIIFIKGTYASEEVIWDVLSGIGVRAGREHFAFGEPRELLTKVWVQEHYLEYREVPNSSPPRYEFLWGPRAHSEVIKRKVVEFLAMLKNTVPITFPSSYKDALKDVEERAQAIIDTTDDSTATESASSSVMSPSFSSE
BRAIN
  TSA Expression Rate (ER): 13%
BREAST
  TSA Expression Rate (ER): 16%
HCC
  TSA Expression Rate (ER): 20%
OVARIAN
  TSA Expression Rate (ER): 20%
PANCREATIC
  TSA Expression Rate (ER): 0%
THYROID
  TSA Expression Rate (ER): 22%
[1]
  Expression Rate (ER) %: 27%
[2]
  Expression Rate (ER) %: 12%
[3]
  Expression Rate (ER) %: 6%
[4]
  Expression Rate (ER) %: 15%
TSA expression rate in Kidney
  Expression Rate (ER) %: 0%
[5]
  Expression Rate (ER) %: 70%
TSA expression rate in LUNG cancer
  Expression Rate (ER) %: 19%
[6]
  Expression Rate (ER) %: 13%
[7]
  Expression Rate (ER) %: 45%
[8]
  Expression Rate (ER) %: 39%

B2: MAGE-A3 (protein, UniProt P43357 1-314, looked up)
Melanoma-associated antigen 3: MPLEQRSQHCKPEEGLEARGEALGLVGAQAPATEEQEAASSSSTLVEVTLGEVPAAESPDPPQSPQGASSLPTTMNYPLWSQSYEDSSNQEEEGPSTFPDLESEFQAALSRKVAELVHFLLLKYRAREPVTKAEMLGSVVGNWQYFFPVIFSKASSSLQLVFGIELMEVDPIGHLYIFATCLGLSYDGLLGDNQIMPKAGLLIIVLAIIAREGDCAPEEKIWEELSVLEVFEGREDSILGDPKKLLTQHFVQENYLEYRQVPGSDPACYEFLWGPRALVETSYVKVLHHMVKISGGPHISYPPLHEWVLREGEE
BRAIN
  TSA Expression Rate (ER): 42%
BREAST
  TSA Expression Rate (ER): 28%
HCC
  TSA Expression Rate (ER): 34%
LUNG
  TSA Expression Rate (ER): 37%
OVARIAN
  TSA Expression Rate (ER): 30%
PANCREATIC
  TSA Expression Rate (ER): 11%
THYROID
  TSA Expression Rate (ER): 22%
[1]
  Expression Rate (ER) %: 42%
TSA expression rate in CRC
  Expression Rate (ER) %: 22%
[9]
  Expression Rate (ER) %: 16%
[2]
  Expression Rate (ER) %: 66%
[3]
  Expression Rate (ER) %: 37%
[4]
  Expression Rate (ER) %: 40%
TSA expression rate in Kidney
  Expression Rate (ER) %: 27%
[5]
  Expression Rate (ER) %: 65%
[6]
  Expression Rate (ER) %: 17%
[7]
  Expression Rate (ER) %: 60%
[8]
  Expression Rate (ER) %: 76%
[10]
  Expression Rate (ER) %: 15%

B3: PLAC1 (protein, UniProt Q9HBJ0 23-212, looked up)
Placenta-specific protein 1: QSPMTVLCSIDWFMVTVHPFMLNNDVCVHFHELHLGLGCPPNHVQPHAYQFTYRVTECGIRAKAVSQDMVIYSTEIHYSSKGTPSKFVIPVSCAAPQKSPWLTKPCSMRVASKSRATAQKDEKCYEVFSLSQSSQRPNCDCPPCVFSEEEHTQVPCHQAGAQEAQPLQPSHFLDISEDWSLHTDDMIGSM
BREAST
  TSA Expression Rate (ER): 4%
HCC
  TSA Expression Rate (ER): 41%
LUNG
  TSA Expression Rate (ER): 68%
OVARIAN
  TSA Expression Rate (ER): 21%
PANCREATIC
  TSA Expression Rate (ER): 44%
TSA expression rate in CRC
  Expression Rate (ER) %: 27%
[10]
  Expression Rate (ER) %: 100%

B4: SCP3a (protein, UniProt Q8IZU3 1-236, looked up)
Synaptonemal complex protein 3: MVSSGKKYSRKSGKPSVEDQFTRAYDFETEDKKDLSGSEEDVIEGKTAVIEKRRKKRSSAGVVEDMGGEVQNMLEGVGVDINKALLAKRKRLEMYTKASLKTSNQKIEHVWKTQQDQRQKLNQEYSQQFLTLFQQWDLDMQKAEEQEEKILNMFRQQQKILQQSRIVQSQRLKTIKQLYEQFIKSMEELEKNHDNLLTGAQNEFKKEMAMLQKKIMMETQQQEIASVRKSLQSMLF
OVARIAN
  TSA Expression Rate (ER): 25%
[5]
  Expression Rate (ER) %: 47%

B5: EpCAM (protein, UniProt P16422 24-314, looked up)
Epithelial cell adhesion …: QEECVCENYKLAVNCFVNNNRQCQCTSVGAQNTVICSKLAAKCLVMKAEMNGSKLGRRAKPEGALQNNDGLYDPDCDESGLFKAKQCNGTSMCWCVNTAGVRRTDKDTEITCSERVRTYWIIIELKHKAREKPYDSKSLRTALQKEITTRYQLDPKFITSILYENNVITIDLVQNSSQKTQNDVDIADVAYYFEKDVKGESLFHSKKMDLTVNGEQLDLDPGQTLIYYVDEKAPEFSMQGLKAGVIAVIVVVVIAVVAGIVVLVISRKKRMAKYEKAEIKEMGEMHRELNA
BRAIN
  TSA Expression Rate (ER): 16%
BREAST
  TSA Expression Rate (ER): 76%
HCC
  TSA Expression Rate (ER): 41%
LUNG
  TSA Expression Rate (ER): 78%
OVARIAN
  TSA Expression Rate (ER): 92%
PANCREATIC
  TSA Expression Rate (ER): 85%
THYROID
  TSA Expression Rate (ER): 83%
[1]
  Expression Rate (ER) %: 54%
TSA expression rate in CRC
  Expression Rate (ER) %: 88%
[9]
  Expression Rate (ER) %: 36%
[2]
  Expression Rate (ER) %: 81%
[3]
  Expression Rate (ER) %: 90%
TSA expression rate in Kidney
  Expression Rate (ER) %: 55%
[10]
  Expression Rate (ER) %: 98%

B6: MAGE-A1 (protein, UniProt P43355 1-309, looked up)
Melanoma-associated antigen 1: MSLEQRSLHCKPEEALEAQQEALGLVCVQAATSSSSPLVLGTLEEVPTAGSTDPPQSPQGASAFPTTINFTRQRQPSEGSSSREEEGPSTSCILESLFRAVITKKVADLVGFLLLKYRAREPVTKAEMLESVIKNYKHCFPEIFGKASESLQLVFGIDVKEADPTGHSYVLVTCLGLSYDGLLGDNQIMPKTGFLIIVLVMIAMEGGHAPEEEIWEELSVMEVYDGREHSAYGEPRKLLTQDLVQEKYLEYRQVPDSDPARYEFLWGPRALAETSYVKVLEYVIKVSARVRFFFPSLREAALREEEEGV
BRAIN
  TSA Expression Rate (ER): 41%
BREAST
  TSA Expression Rate (ER): 31%
HCC
  TSA Expression Rate (ER): 56%
LUNG
  TSA Expression Rate (ER): 42%
OVARIAN
  TSA Expression Rate (ER): 24%
PANCREATIC
  TSA Expression Rate (ER): 27%
THYROID
  TSA Expression Rate (ER): 17%
[1]
  Expression Rate (ER) %: 34%
TSA expression rate in CRC
  Expression Rate (ER) %: 14%
[9]
  Expression Rate (ER) %: 17%
[2]
  Expression Rate (ER) %: 46%
[3]
  Expression Rate (ER) %: 31%
[4]
  Expression Rate (ER) %: 23%
TSA expression rate in Kidney
  Expression Rate (ER) %: 11%
[5]
  Expression Rate (ER) %: 20%
[6]
  Expression Rate (ER) %: 9%
[7]
  Expression Rate (ER) %: 37%
[8]
  Expression Rate (ER) %: 44%
[10]
  Expression Rate (ER) %: 13%

B7: DPPA2 (protein, UniProt Q7Z7J5 1-298, looked up)
Developmental …: MSDANLDSSKKNFLEGEVDDEESVILTLVPVKDDANMEQMEPSVSSTSDVKLEKPKKYNPGHLLQTNEQFTAPQKARCKIPALPLPTILPPINKVCRDTLRDWCQQLGLSTNGKKIEVYLRLHRHAYPEQRQDMPEMSQETRLQRCSRKRKAVTKRARLQRSYEMNERAEETNTVEVITSAPGAMLASWARIAARAVQPKALNSCSIPVSVEAFLMQASGVRWCVVHGRLLSADTKGWVRLQFHAGQAWVPTTHRRMISLFLLPACIFPSPGIEDNMLCPDCAKRNKKMMKRLMTVEK
LUNG
  TSA Expression Rate (ER): 30%
OVARIAN
  TSA Expression Rate (ER): 31%
TSA expression rate in CRC
  Expression Rate (ER) %: 44%
[3]
  Expression Rate (ER) %: 100%

B8: SPAG1 (protein, UniProt Q07617 1-926, looked up)
Sperm-associated antigen 1: MTTKDYPSLWGFGTTKTFKIPIEHLDFKYIEKCSDVKHLEKILCVLRSGEEGYYPELTEFCEKHLQALAPESRALRKDKPAATAASFTAEEWEKIDGDIKSWVSEIKKEEDKMHFHETETFPAMKDNLPPVRGSNSCLHVGKEKYSKRPTKKKTPRDYAEWDKFDVEKECLKIDEDYKEKTVIDKSHLSKIETRIDTAGLTEKEKDFLATREKEKGNEAFNSGDYEEAVMYYTRSISALPTVVAYNNRAQAEIKLQNWNSAFQDCEKVLELEPGNVKALLRRATTYKHQNKLREATEDLSKVLDVEPDNDLAKKTLSEVERDLKNSEAASETQTKGKRMVIQEIENSEDEEGKSGRKHEDGGGDKKPAEPAGAARAAQPCVMGNIQKKLTGKAEGGKRPARGAPQRGQTPEAGADKRSPRRASAAAAAGGGATGHPGGGQGAENPAGLKSQGNELFRSGQFAEAAGKYSAAIALLEPAGSEIADDLSILYSNRAACYLKEGNCSGCIQDCNRALELHPFSMKPLLRRAMAYETLEQYGKAYVDYKTVLQIDCGLQLANDSVNRLSRILMELDGPNWREKLSPIPAVPASVPLQAWHPAKEMISKQAGDSSSHRQQGITDEKTFKALKEEGNQCVNDKNYKDALSKYSECLKINNKECAIYTNRALCYLKLCQFEEAKQDCDQALQLADGNVKAFYRRALAHKGLKNYQKSLIDLNKVILLDPSIIEAKMELEEVTRLLNLKDKTAPFNKEKERRKIEIQEVNEGKEEPGRPAGEVSMGCLASEKGGKSSRSPEDPEKLPIAKPNNAYEFGQIINALSTRKDKEACAHLLAITAPKDLPMFLSNKLEGDTFLLLIQSLKNNLIEKDPSLVYQHLLYLSKAERFKMMLTLISKGQKELIEQLFEDLSDTPNNHFTLEDIQALKRQYEL
BREAST
  TSA Expression Rate (ER): 31%
HCC
  TSA Expression Rate (ER): 11%
LUNG
  TSA Expression Rate (ER): 71%
OVARIAN
  TSA Expression Rate (ER): 31%
PANCREATIC
  TSA Expression Rate (ER): 93%
TSA expression rate in CRC
  Expression Rate (ER) %: 55%
[4]
  Expression Rate (ER) %: 7%
TSA expression rate in Kidney
  Expression Rate (ER) %: 11%
[10]
  Expression Rate (ER) %: 27%
